The results in this text go back to paper PMC8605244 (The Journal of Biological Chemistry, 2021).

Assay [1] deals with T1, H-Ras, biotinylated, loaded with a nonhydrolyzable GTP analog (Ras-GTP) or with GDP (Ras-GDP) (UniProt P01112 1-189, biotin on the AVI-tag (attached in vivo by BirA)).
T1 construct: H-Ras; One construct used in two nucleotide states; also called biotinylated-Ras; not shown: His tag, N-terminal, cleaved; AVI-tag, C-terminal, kept
As to the kind of experiment: SPR; OpenSPR, streptavidin chip; biotinylated Ras in the GDP-bound state immobilised at 50 ug/ml; RASSF5 variants injected at 1.25-20 uM; Ras buffer (Tris 20 mM, NaCl 100 mM, MgCl2 5 mM, pH 7.5) with 0.1% Tween20 and 0.5% BSA; 30 ul/min. Conditions: both partners purified. For orientation: SPR reads the build-up and loss of mass on a sensor chip optically.

Assay [2] has as its target T1, H-Ras, biotinylated, loaded with a …. The assay can be described thus: SPR; OpenSPR, streptavidin chip; biotinylated Ras in the GTP-bound state (nonhydrolyzable analog) immobilised at 50 ug/ml; RASSF5 variants injected at 1.25-20 uM; Ras buffer (Tris 20 mM, NaCl 100 mM, MgCl2 5 mM, pH 7.5) with 0.1% Tween20 and 0.5% BSA; 30 ul/min. To be noted: both partners purified.

T1 sequence (P01112 whole entry): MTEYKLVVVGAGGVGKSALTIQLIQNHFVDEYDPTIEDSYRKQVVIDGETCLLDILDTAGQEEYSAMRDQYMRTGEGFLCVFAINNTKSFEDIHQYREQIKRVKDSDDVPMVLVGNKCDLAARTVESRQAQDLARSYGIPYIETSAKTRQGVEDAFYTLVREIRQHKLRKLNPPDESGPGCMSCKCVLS

B1: RASSF5 RA domain mutant D2 (RTRHWKR) (designed binder)
chain: EIKQKIDSYNSRERTRHGMKLSEDGTYTGWIKVHLKLRRPVTVPAGIRPQSIYDAIKEVNPAATTDKRTSFYLPLDAIKQLKISSTTTVSEVIQGLLKKFRVVDNPQKFALFKRIHKDGQVLFQKLSIADYPLYLRLLAGPDTDVLSFVLKENETGEV
notes: RASSF5 (NORE1A) RA domain, residues 205-362, with RTRHWKR at positions 218, 219, 220, 221, 234, 286, 305 (WT: KHCLFHM); The numbers follow PDB 3DDC; Selected by yeast surface display against Ras-GDP; source: E. coli BL21(DE3), pET28a, purified (Ni beads, Superdex75 SEC)
As to B1, the Kd (in general, a measure of binding affinity in units of concentration) in assay [1] amounted to 1600 ± 300 nM.

B2: RASSF5 RA domain mutant D3 (FRKFWHK) (designed binder)
chain: EIKQKIDSYNSREFRKFGMKLSEDGTYTGWIKVHLKLRRPVTVPAGIRPQSIYDAIKEVNPAATTDKRTSFYLPLDAIKQLHISSTTTVSEVIQGLLKKFKVVDNPQKFALFKRIHKDGQVLFQKLSIADYPLYLRLLAGPDTDVLSFVLKENETGEV
notes: RASSF5 (NORE1A) RA domain, residues 205-362, with FRKFWHK at positions 218, 219, 220, 221, 234, 286, 305 (WT: KHCLFHM); The numbers follow PDB 3DDC; Selected by yeast surface display against Ras-GDP; source: E. coli BL21(DE3), pET28a, purified (Ni beads, Superdex75 SEC)
With B2, the affinity in assay [1], expressed as Kd, was 1600 ± 200 nM.

B3: RASSF5 RA domain mutant T2 (YRRLYKR) (designed binder)
chain: EIKQKIDSYNSREYRRLGMKLSEDGTYTGYIKVHLKLRRPVTVPAGIRPQSIYDAIKEVNPAATTDKRTSFYLPLDAIKQLKISSTTTVSEVIQGLLKKFRVVDNPQKFALFKRIHKDGQVLFQKLSIADYPLYLRLLAGPDTDVLSFVLKENETGEV
notes: RASSF5 (NORE1A) RA domain, residues 205-362, with YRRLYKR at positions 218, 219, 220, 221, 234, 286, 305 (WT: KHCLFHM); The numbers follow PDB 3DDC; Selected by yeast surface display against Ras-GTP; source: E. coli BL21(DE3), pET28a, purified (Ni beads, Superdex75 SEC)
The molecule B3 returned a Kd in assay [1] of 3000 ± 500 nM.

B4: RASSF5 RA domain mutant T3 (WSRLYKR) (designed binder)
chain: EIKQKIDSYNSREWSRLGMKLSEDGTYTGYIKVHLKLRRPVTVPAGIRPQSIYDAIKEVNPAATTDKRTSFYLPLDAIKQLKISSTTTVSEVIQGLLKKFRVVDNPQKFALFKRIHKDGQVLFQKLSIADYPLYLRLLAGPDTDVLSFVLKENETGEV
notes: RASSF5 (NORE1A) RA domain, residues 205-362, with WSRLYKR at positions 218, 219, 220, 221, 234, 286, 305 (WT: KHCLFHM); The numbers follow PDB 3DDC; Selected by yeast surface display against Ras-GTP; source: E. coli BL21(DE3), pET28a, purified (Ni beads, Superdex75 SEC)
For B4, the Kd in assay [1] stood at 1600 ± 300 nM; in assay [2], 1000 ± 150 nM.
